One block for each substance: values may come before it.
Legend:
Test in all cases: cell-based or functional assay
BDKRB2 = BDKRB2 (UniProt P30411)
SCTR = SCTR (UniProt P47872)
KISS1R = KISS1R (UniProt Q969F8)
BRS3 = BRS3 (UniProt P32247)
GIPR = GIPR (UniProt P48546)
CXCR1 = biological target: T1, CXCR1 (UniProt P25024)
T1 sequence (looked up): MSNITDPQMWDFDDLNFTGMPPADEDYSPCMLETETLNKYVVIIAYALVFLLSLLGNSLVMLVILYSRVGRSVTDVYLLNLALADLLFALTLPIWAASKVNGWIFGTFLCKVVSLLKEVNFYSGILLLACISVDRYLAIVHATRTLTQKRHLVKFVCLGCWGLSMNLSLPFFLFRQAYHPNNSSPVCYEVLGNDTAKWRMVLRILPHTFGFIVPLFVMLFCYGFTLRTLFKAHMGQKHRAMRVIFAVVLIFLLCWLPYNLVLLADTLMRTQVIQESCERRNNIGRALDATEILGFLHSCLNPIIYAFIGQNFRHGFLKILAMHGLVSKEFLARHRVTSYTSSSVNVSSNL

CXCR2 = CXCR2 (UniProt P25025)
[1] = biological target: relaxin-3 receptor (RXFP3) (UniProt Q9NSD7)
CCR7 = CCR7 (UniProt P32248)
CCR3 = CCR3 (UniProt P51677)
GLP2R = GLP2R (UniProt O95838)
GRPR = GRPR (UniProt P30550)
CCR9 = CCR9 (UniProt P51686)
TRHR = TRHR (UniProt P34981)
HCRTR2 = HCRTR2 (UniProt O43614)
GPR1 = GPR1 (UniProt P46091)
CCR6 = biological target: T2, CCR6 (UniProt P51684)
T2 sequence (looked up): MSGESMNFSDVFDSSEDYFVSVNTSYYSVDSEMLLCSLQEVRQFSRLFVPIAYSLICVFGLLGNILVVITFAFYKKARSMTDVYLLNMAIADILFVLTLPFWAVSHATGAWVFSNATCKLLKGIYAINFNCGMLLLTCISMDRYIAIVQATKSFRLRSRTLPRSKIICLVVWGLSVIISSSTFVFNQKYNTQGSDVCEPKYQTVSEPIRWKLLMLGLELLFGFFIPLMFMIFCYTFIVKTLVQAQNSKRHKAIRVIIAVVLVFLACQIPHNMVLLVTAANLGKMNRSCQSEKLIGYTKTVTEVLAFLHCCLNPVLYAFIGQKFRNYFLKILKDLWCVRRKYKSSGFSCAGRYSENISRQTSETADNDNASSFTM

VIPR1 = VIPR1 (UniProt P32241)
PRLHR = PRLHR (UniProt P49683)
OXTR = OXTR (UniProt P30559)
MLNR = MLNR (UniProt O43193)
CX3CR1 = CX3CR1 (UniProt P49238)
BDKRB1 = BDKRB1 (UniProt P46663)
CCR2 = CCR2 (UniProt P41597)
CALCR-RAMP2 = CALCR-RAMP2 (UniProt P30988)
CALCR-RAMP3 = biological target: T3, CALCR-RAMP3 (UniProt P30988)
T3 sequence (looked up) 1: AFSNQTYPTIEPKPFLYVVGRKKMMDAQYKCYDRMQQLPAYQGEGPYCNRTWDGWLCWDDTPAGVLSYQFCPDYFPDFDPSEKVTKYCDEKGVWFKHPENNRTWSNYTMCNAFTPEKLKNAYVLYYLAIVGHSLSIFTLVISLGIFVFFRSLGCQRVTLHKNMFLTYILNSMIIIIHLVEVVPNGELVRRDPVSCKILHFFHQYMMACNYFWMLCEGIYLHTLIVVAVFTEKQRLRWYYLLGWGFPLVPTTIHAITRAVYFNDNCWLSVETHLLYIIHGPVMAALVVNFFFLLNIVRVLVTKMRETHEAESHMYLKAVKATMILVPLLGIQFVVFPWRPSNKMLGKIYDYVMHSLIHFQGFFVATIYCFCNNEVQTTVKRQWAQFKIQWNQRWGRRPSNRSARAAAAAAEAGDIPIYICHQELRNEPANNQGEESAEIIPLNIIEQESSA
T3 sequence (looked up) 2: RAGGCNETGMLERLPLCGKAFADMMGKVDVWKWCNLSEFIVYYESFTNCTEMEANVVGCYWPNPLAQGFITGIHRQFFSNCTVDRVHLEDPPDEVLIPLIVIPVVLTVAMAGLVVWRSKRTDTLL

CALCR = biological target: T4, CALCR (UniProt P30988)
T4 sequence (looked up): T3 sequence (looked up) 1

C5L2 = C5L2 (UniProt Q9P296)
C5aR1 = C5aR1 (UniProt P21730)
NPY1R = NPY1R (UniProt P25929)
GALR2 = biological target: T5, GALR2 (UniProt O43603)
T5 sequence (looked up): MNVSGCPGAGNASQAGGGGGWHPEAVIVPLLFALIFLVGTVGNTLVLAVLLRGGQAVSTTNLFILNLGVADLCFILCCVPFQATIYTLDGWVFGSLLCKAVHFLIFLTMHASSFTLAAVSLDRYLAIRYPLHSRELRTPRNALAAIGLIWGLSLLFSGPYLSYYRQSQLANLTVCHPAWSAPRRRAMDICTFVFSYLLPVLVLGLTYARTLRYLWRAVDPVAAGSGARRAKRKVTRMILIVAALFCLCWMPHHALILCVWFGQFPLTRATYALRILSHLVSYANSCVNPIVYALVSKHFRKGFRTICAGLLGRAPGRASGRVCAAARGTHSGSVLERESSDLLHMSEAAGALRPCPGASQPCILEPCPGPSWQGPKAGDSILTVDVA

CCR5 = CCR5 (UniProt P51681)
CCR1 = biological target: T6, CCR1 (UniProt P32246)
T6 sequence (looked up): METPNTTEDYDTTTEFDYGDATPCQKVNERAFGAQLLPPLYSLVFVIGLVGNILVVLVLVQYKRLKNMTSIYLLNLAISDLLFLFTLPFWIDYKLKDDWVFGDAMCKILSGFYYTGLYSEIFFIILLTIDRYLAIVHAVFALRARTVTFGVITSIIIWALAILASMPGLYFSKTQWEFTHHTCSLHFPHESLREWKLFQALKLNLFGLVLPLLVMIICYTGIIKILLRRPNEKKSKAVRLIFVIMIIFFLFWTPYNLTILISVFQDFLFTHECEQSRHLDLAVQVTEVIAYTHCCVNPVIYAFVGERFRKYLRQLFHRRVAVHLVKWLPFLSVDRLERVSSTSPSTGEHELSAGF

Sequence of CXCL8 (P10145 28-99 limits assumed): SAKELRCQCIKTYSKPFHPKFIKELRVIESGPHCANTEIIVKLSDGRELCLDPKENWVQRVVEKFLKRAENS
Sequence of Calcitonin (P01258 85-116 limits assumed): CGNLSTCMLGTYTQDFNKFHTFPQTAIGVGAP
Sequence of CCL3 (P10147 24-92 limits assumed): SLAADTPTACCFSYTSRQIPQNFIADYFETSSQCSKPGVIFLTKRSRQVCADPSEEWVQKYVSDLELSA
Sequence of Complement C5a (P01031 678-751 limits assumed): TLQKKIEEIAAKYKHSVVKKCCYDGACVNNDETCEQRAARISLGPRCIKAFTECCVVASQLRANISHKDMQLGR
Sequence of BDKRB2 (P30411 whole entry): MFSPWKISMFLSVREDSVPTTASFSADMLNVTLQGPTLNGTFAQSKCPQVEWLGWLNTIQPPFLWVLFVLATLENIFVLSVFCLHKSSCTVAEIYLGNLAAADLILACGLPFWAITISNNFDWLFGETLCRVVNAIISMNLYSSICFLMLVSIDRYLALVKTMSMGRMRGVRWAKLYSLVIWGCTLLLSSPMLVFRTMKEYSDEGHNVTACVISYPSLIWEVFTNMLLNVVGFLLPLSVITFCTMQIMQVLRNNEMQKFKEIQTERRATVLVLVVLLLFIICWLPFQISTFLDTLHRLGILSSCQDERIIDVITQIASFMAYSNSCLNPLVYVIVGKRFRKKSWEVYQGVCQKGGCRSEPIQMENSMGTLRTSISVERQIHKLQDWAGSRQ
Sequence of KISS1R (Q969F8 whole entry): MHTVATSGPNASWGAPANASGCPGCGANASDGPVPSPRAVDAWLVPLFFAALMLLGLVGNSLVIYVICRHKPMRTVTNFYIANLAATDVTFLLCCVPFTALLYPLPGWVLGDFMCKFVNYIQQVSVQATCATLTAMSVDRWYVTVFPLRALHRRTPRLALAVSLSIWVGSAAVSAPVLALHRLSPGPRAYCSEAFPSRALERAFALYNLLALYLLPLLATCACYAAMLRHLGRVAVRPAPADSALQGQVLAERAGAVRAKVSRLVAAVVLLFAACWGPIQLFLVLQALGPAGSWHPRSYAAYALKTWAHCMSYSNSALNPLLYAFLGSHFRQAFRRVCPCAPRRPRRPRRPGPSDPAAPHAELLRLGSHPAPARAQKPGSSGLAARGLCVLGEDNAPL
Sequence of CCL20 (P78556 27-96 limits assumed): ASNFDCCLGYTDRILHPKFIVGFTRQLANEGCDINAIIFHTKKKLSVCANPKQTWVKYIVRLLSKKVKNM
Sequence of NPY1R (P25929 whole entry): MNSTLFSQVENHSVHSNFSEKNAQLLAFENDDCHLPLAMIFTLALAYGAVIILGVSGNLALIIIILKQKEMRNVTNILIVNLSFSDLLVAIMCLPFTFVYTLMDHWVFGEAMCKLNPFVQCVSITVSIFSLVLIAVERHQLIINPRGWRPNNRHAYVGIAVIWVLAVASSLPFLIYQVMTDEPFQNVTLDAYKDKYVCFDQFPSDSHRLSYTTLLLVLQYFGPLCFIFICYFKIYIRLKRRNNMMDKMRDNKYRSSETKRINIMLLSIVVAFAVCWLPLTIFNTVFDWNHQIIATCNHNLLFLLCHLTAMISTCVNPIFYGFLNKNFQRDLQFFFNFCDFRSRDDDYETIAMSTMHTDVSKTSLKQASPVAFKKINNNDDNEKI
Sequence of CCR2 (P41597 other isoform, or with tags, fused parts or gaps limits assumed): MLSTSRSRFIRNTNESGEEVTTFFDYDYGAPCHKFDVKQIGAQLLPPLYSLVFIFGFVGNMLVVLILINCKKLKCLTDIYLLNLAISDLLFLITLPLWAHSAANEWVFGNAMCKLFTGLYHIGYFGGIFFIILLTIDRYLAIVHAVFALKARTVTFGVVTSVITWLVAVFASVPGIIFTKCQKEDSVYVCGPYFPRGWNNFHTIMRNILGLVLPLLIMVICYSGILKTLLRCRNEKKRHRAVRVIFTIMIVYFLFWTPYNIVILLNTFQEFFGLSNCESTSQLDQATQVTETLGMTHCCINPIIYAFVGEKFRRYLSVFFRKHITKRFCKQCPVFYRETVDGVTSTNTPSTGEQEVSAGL
Sequence of GPR1 (P46091 whole entry): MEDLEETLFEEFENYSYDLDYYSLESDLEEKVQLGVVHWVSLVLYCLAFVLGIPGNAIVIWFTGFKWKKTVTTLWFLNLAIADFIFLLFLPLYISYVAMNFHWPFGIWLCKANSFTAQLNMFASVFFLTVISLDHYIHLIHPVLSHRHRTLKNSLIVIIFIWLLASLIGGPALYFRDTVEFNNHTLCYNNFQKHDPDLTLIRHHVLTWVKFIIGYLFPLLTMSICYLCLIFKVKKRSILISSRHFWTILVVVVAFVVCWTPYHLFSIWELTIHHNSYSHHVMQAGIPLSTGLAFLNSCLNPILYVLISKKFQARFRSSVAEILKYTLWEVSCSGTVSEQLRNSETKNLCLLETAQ
Sequence of CCR7 (P32248 25-378 limits assumed): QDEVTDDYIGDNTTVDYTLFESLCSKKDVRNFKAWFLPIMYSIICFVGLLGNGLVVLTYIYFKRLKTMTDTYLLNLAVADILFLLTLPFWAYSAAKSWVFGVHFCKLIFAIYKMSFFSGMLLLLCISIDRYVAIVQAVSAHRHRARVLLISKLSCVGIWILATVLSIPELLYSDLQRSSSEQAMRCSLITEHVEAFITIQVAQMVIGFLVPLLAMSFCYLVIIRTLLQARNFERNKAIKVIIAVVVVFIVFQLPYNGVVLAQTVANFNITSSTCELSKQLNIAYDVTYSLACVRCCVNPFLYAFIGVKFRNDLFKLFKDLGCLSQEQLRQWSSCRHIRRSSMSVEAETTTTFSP
Sequence of CCR3 (P51677 whole entry): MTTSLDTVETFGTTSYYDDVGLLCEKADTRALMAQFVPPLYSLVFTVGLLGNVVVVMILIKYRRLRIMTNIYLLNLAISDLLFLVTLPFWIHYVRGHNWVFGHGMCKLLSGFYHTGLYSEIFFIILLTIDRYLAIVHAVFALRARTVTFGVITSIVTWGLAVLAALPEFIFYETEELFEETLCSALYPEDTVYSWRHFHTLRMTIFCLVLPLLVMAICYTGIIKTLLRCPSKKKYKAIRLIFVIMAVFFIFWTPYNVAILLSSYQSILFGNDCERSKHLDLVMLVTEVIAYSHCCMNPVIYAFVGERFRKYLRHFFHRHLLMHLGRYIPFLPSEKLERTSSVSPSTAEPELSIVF
Sequence of MLNR (O43193 whole entry): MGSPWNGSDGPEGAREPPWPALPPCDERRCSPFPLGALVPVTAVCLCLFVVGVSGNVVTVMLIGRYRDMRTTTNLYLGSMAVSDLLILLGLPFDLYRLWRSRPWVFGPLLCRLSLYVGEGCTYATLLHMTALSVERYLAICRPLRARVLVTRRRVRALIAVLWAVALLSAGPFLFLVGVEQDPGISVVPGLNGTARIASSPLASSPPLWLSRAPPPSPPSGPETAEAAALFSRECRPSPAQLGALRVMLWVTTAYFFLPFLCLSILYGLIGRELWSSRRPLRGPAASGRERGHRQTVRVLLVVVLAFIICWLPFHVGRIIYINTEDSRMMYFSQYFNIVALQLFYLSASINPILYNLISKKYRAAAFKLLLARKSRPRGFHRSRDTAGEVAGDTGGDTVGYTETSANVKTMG
Sequence of CCL19 (Q99731 22-98 limits assumed): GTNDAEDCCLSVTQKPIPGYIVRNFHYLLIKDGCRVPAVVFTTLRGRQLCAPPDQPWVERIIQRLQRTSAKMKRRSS
Sequence of GRPR (P30550 whole entry): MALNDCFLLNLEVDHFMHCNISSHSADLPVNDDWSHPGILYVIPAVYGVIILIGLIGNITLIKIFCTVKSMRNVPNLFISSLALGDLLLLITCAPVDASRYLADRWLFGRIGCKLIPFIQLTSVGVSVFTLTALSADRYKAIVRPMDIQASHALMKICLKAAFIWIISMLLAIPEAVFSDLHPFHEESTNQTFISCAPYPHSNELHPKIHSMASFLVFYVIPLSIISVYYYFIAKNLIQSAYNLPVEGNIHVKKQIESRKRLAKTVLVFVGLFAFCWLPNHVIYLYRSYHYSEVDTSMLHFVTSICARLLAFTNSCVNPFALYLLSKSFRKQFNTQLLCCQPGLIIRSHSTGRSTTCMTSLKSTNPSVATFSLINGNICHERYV
Sequence of GIPR (P48546 22-466 limits assumed): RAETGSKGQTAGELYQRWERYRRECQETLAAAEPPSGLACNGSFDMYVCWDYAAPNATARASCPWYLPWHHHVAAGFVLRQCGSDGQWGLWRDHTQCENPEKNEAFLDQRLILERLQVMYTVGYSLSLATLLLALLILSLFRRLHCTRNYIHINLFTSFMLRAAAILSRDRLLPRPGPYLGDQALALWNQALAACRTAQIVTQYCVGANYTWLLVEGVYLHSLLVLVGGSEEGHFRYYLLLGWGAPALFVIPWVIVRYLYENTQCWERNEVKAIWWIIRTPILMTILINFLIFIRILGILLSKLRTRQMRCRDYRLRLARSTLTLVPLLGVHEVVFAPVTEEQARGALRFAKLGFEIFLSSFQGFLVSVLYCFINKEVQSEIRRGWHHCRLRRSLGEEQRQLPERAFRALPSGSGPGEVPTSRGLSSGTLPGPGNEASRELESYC
Sequence of CX3CR1 (P49238 whole entry): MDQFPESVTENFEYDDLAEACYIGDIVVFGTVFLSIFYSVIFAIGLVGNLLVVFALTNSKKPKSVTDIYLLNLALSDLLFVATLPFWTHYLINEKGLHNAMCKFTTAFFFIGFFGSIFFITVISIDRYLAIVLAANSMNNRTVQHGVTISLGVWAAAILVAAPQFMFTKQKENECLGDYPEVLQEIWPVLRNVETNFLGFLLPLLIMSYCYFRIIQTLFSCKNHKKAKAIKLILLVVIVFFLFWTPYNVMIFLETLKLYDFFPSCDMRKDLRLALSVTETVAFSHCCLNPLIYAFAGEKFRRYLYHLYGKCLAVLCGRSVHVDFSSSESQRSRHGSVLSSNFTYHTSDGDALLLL
Sequence of Fractalkine (P78423 25-100 limits assumed): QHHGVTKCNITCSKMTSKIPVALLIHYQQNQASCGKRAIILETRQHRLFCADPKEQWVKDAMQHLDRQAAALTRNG
Sequence of Galanin (P22466 33-62 limits assumed): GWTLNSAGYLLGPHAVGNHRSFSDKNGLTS
Sequence of PrRP-31 (P81277 23-53 limits assumed): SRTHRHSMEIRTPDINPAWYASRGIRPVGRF

Substance: Bradykinin (from UniProt P01042 381-389) (peptide)
- EC50 (RC50), arrestin, agonist mode (BDKRB2): 5.57 nM
- EC80, arrestin, agonist mode (BDKRB2): 9.82 nM

- EC50 (RC50), arrestin, agonist mode (SCTR): 1.74 nM
- EC80, arrestin, agonist mode (SCTR): 9.2 nM
Substance: Secretin (from UniProt P09683 28-54) (peptide)

- EC50 (RC50), arrestin, agonist mode (KISS1R): 17.6 nM
- EC80, arrestin, agonist mode (KISS1R): 37.6 nM
Substance: Kisspeptin-10 (from UniProt Q15726 112-121) (peptide)

- EC50 (RC50), arrestin, agonist mode (BRS3): 1.24 nM
- EC80, arrestin, agonist mode (BRS3): 3.73 nM
Substance: TAPN-Bombesin (peptide)

- EC50 (RC50), arrestin, agonist mode (GIPR): 4.87 nM
- EC80, arrestin, agonist mode (GIPR): 18.5 nM
Substance: GIP (from UniProt P09681 52-93) (peptide)

- EC50 (RC50), arrestin, agonist mode (CXCR1): 2.8 nM
- EC80, arrestin, agonist mode (CXCR1): 14.8 nM
- EC50 (RC50), arrestin, agonist mode (CXCR2): 0.304 nM
- EC80, arrestin, agonist mode (CXCR2): 0.968 nM
Substance: CXCL8 (from UniProt P10145 28-99) (ligand)

- EC50 (RC50), arrestin, agonist mode [1]: 11.9 nM
- EC80, arrestin, agonist mode [1]: 62.5 nM
Substance: Relaxin-3 (from UniProt Q8WXF3 26-142; Q8WXF3 26-142) (ligand)

- EC50 (RC50), arrestin, agonist mode (CCR7): 5.65 nM
- EC80, arrestin, agonist mode (CCR7): 19 nM
Substance: CCL19 (from UniProt Q99731 22-98) (ligand)

- EC50 (RC50), arrestin, agonist mode (CCR3): 40.6 nM
- EC80, arrestin, agonist mode (CCR3): 140 nM
Substance: CCL13 (from UniProt Q99616 24-98) (ligand)

- EC50 (RC50), arrestin, agonist mode (GLP2R): 2.3 nM
- EC80, arrestin, agonist mode (GLP2R): 8.97 nM
Substance: GLP II (1-33) (from UniProt P01275 21-180) (peptide)

- EC50 (RC50), arrestin, agonist mode (GRPR): 1.62 nM
- EC80, arrestin, agonist mode (GRPR): 5.92 nM
Substance: GRP (from UniProt P07492 24-50) (peptide)

- EC50 (RC50), arrestin, agonist mode (CCR9): 173 nM
- EC80, arrestin, agonist mode (CCR9): 370 nM
Substance: CCL25 (from UniProt O15444 24-150) (ligand)

- EC50 (RC50), arrestin, agonist mode (TRHR): 2.02 nM
- EC80, arrestin, agonist mode (TRHR): 7.14 nM
Substance: TRH (from UniProt P20396 84-86) (peptide)

- EC50 (RC50), arrestin, agonist mode (HCRTR2): 18.2 nM
- EC80, arrestin, agonist mode (HCRTR2): 42.5 nM
Substance: Orexin A (from UniProt O43612 34-66) (peptide)

- EC50 (RC50), arrestin, agonist mode (GPR1): 2.26 nM
- EC80, arrestin, agonist mode (GPR1): 4.67 nM
Substance: Chemerin (from UniProt Q99969 21-157) (ligand)

- EC50 (RC50), arrestin, agonist mode (CCR6): 2.95 nM
- EC80, arrestin, agonist mode (CCR6): 14.3 nM
Substance: CCL20 (from UniProt P78556 27-96) (ligand)

- EC50 (RC50), arrestin, agonist mode (VIPR1): 1.73 nM
- EC80, arrestin, agonist mode (VIPR1): 3.69 nM
Substance: VIP (from UniProt P01282 125-152) (peptide)

- EC80, arrestin, agonist mode (PRLHR): 10.7 nM
Substance: PrRP-31 (from UniProt P81277 23-53) (peptide)

- EC50 (RC50), arrestin, agonist mode (OXTR): 3.23 nM
- EC80, arrestin, agonist mode (OXTR): 7.19 nM
Substance: Oxytocin (from UniProt P01178 20-28) (peptide)

- EC50 (RC50), arrestin, agonist mode (MLNR): 1.59 nM
- EC80, arrestin, agonist mode (MLNR): 5.63 nM
Substance: Motilin (from UniProt P12872 26-47) (peptide)

- EC50 (RC50), arrestin, agonist mode (CX3CR1): 0.444 nM
- EC80, arrestin, agonist mode (CX3CR1): 1.45 nM
Substance: Fractalkine (from UniProt P78423 25-100) (ligand)

- EC50 (RC50), arrestin, agonist mode (BDKRB1): 3.65 nM
- EC80, arrestin, agonist mode (BDKRB1): 14 nM
Substance: LDA-Bradykinin (peptide)

- EC50 (RC50), arrestin, agonist mode (CCR2): 2.63 nM
- EC80, arrestin, agonist mode (CCR2): 6.92 nM
Substance: CCL2 (from UniProt P13500 24-99) (ligand)

- EC80, arrestin, agonist mode (CALCR-RAMP2): 33.7 nM
- EC80, arrestin, agonist mode (CALCR-RAMP3): 384 nM
- EC80, arrestin, agonist mode (CALCR): 72.9 nM
Substance: Calcitonin (from UniProt P01258 85-116) (peptide)

- EC50 (RC50), arrestin, agonist mode (C5L2): 1.57 nM
- EC80, arrestin, agonist mode (C5L2): 2.7 nM
- EC50 (RC50), arrestin, agonist mode (C5aR1): 1.38 nM
- EC80, arrestin, agonist mode (C5aR1): 3.64 nM
Substance: Complement C5a (from UniProt P01031 678-751) (ligand)

- EC50 (RC50), arrestin, agonist mode (NPY1R): 3.93 nM
- EC80, arrestin, agonist mode (NPY1R): 12.4 nM
Substance: Peptide YY (from UniProt P10082 29-64)

- EC50 (RC50), arrestin, agonist mode (GALR2): 6.81 nM
- EC80, arrestin, agonist mode (GALR2): 12.2 nM
Substance: Galanin (from UniProt P22466 33-62) (peptide)

- EC50 (RC50), arrestin, agonist mode (CCR5): 7.55 nM
- EC80, arrestin, agonist mode (CCR5): 30.3 nM
- EC50 (RC50), arrestin, agonist mode (CCR1): 1.04 nM
- EC80, arrestin, agonist mode (CCR1): 2.53 nM
Substance: CCL3 (from UniProt P10147 24-92) (ligand)
